Test system: Nc1ncnc2c1ncn2[C@@H]1O[C@H](COP(=O)(O)OP(=O)(O)OP(=O)(O)O)[C@@H](O)[C@H]1O
Assay: steady-state Pi release, MDCC-PBP stopped-flow, Hill fit
Format: biochemical, Escherichia coli
Settings: DNA-free RecQ, SF50 buffer pH 7.5, 5 mM MgCl2, 50 mM NaCl, 25 °C, Hill coefficient 1.3
Description: steady-state Pi release, MDCC-PBP stopped-flow, Hill fit on E. coli RecQ helicase

Substance: E. coli RecQ helicase (Escherichia coli K-12)
- K0.5: 28 ± 2 µM
- kcat: 0.53 ± 0.05 s⁻¹

Source: publication PMC4333385
